Test results published in publication PMC7474084.

Molecular target: Echovirus 30 (E30) mature virion (F-particle) (Echovirus 30)
Test: SPR; BIAcore T100; […]; PBS with 0.05% Tween-20, 25 °C; global fit

Substance	Kd [nM]
human FcRn, extracellular domain (from UniProt P55899 24-297; P61769 21-119) (receptor)	2000
human CD55, extracellular domain (receptor)	2000
